# *1 amine or outer side, *2 acyl side, *3 side chain or, on linkers, in order; H or OH if unused. Side-chain parts run from the residue outwards. The star is where a group is joined. C18 diacid = O=C(O)CCCCCCCCCCCCCCCCC(=O)*; γGlu = O=C(O)[C@H](CCC(=O)[*:2])N[*:1]; Isovaleryl = CC(C)CC(=O)*; Ahx = NCCCCCC(=O)O
# T1: human NPY2 receptor (human, UniProt P49146 1-381)
# T1 construct: whole, on cells; also called hNPY2-R; hNPY2R
# T1 sequence (looked up): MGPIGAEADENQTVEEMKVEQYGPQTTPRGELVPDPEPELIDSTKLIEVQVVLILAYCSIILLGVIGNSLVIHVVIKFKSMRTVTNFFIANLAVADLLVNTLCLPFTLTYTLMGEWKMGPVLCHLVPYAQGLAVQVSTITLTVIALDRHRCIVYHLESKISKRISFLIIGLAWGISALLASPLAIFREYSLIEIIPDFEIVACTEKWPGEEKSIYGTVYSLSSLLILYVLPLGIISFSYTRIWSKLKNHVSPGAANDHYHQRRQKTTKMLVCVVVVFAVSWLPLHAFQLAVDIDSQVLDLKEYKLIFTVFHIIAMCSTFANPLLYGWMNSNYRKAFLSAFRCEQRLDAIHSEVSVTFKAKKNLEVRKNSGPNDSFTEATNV
# Biological target: T1, human NPY2 receptor
# Experiment: RLB: displacement of 125I-PYY(1-36) from hNPY2R membranes
row,Binder,Ki [nM]
1,Isovaleryl-APEK([Ahx-γGlu-C18 diacid])PEEDASPEEIQRYYVQLRHYYNWLTRQRY-NH2 (SMILES CC[C@H](C)[C@H](NC(=O)[C@H](CCC(=O)O)NC(=O)[C@H](CCC(=O)O)NC(=O)[C@@H]1CCCN1C(=O)[C@H](CO)NC(=O)[C@H](C)NC(=O)[C@H](CC(=O)O)NC(=O)[C@H](CCC(=O)O)NC(=O)[C@H](CCC(=O)O)NC(=O)[C@@H]1CCCN1C(=O)[C@H](CCCCNC(=O)CCCCCNC(=O)CC[C@H](NC(=O)CCCCCCCCCCCCCCCCC(=O)O)C(=O)O)NC(=O)[C@H](CCC(=O)O)NC(=O)[C@@H]1CCCN1C(=O)[C@H](C)NC(=O)CC(C)C)C(=O)N[C@@H](CCC(N)=O)C(=O)N[C@@H](CCCNC(=N)N)C(=O)N[C@@H](Cc1ccc(O)cc1)C(=O)N[C@@H](Cc1ccc(O)cc1)C(=O)N[C@H](C(=O)N[C@@H](CCC(N)=O)C(=O)N[C@@H](CC(C)C)C(=O)N[C@@H](CCCNC(=N)N)C(=O)N[C@@H](Cc1c[nH]cn1)C(=O)N[C@@H](Cc1ccc(O)cc1)C(=O)N[C@@H](Cc1ccc(O)cc1)C(=O)N[C@@H](CC(N)=O)C(=O)N[C@@H](Cc1c[nH]c2ccccc12)C(=O)N[C@@H](CC(C)C)C(=O)N[C@H](C(=O)N[C@@H](CCCNC(=N)N)C(=O)N[C@@H](CCC(N)=O)C(=O)N[C@@H](CCCNC(=N)N)C(=O)N[C@@H](Cc1ccc(O)cc1)C(N)=O)[C@@H](C)O)C(C)C) [Compound 93],1.71
2,Isovaleryl-APAK([Ahx-γGlu-C18 diacid])PEADASPEELQRYYVELRHYYNWLTRQRY-NH2 (SMILES CC(C)CC(=O)N[C@@H](C)C(=O)N1CCC[C@H]1C(=O)N[C@@H](C)C(=O)N[C@@H](CCCCNC(=O)CCCCCNC(=O)CC[C@H](NC(=O)CCCCCCCCCCCCCCCCC(=O)O)C(=O)O)C(=O)N1CCC[C@H]1C(=O)N[C@@H](CCC(=O)O)C(=O)N[C@@H](C)C(=O)N[C@@H](CC(=O)O)C(=O)N[C@@H](C)C(=O)N[C@@H](CO)C(=O)N1CCC[C@H]1C(=O)N[C@@H](CCC(=O)O)C(=O)N[C@@H](CCC(=O)O)C(=O)N[C@@H](CC(C)C)C(=O)N[C@@H](CCC(N)=O)C(=O)N[C@@H](CCCNC(=N)N)C(=O)N[C@@H](Cc1ccc(O)cc1)C(=O)N[C@@H](Cc1ccc(O)cc1)C(=O)N[C@H](C(=O)N[C@@H](CCC(=O)O)C(=O)N[C@@H](CC(C)C)C(=O)N[C@@H](CCCNC(=N)N)C(=O)N[C@@H](Cc1c[nH]cn1)C(=O)N[C@@H](Cc1ccc(O)cc1)C(=O)N[C@@H](Cc1ccc(O)cc1)C(=O)N[C@@H](CC(N)=O)C(=O)N[C@@H](Cc1c[nH]c2ccccc12)C(=O)N[C@@H](CC(C)C)C(=O)N[C@H](C(=O)N[C@@H](CCCNC(=N)N)C(=O)N[C@@H](CCC(N)=O)C(=O)N[C@@H](CCCNC(=N)N)C(=O)N[C@@H](Cc1ccc(O)cc1)C(N)=O)[C@@H](C)O)C(C)C) [Compound 94],0.93
3,Isovaleryl-APEK([Ahx-γGlu-C18 diacid])PEEDATPEELQAYYVSLRHYYNWLTRQRY-NH2 (SMILES CC(C)CC(=O)N[C@@H](C)C(=O)N1CCC[C@H]1C(=O)N[C@@H](CCC(=O)O)C(=O)N[C@@H](CCCCNC(=O)CCCCCNC(=O)CC[C@H](NC(=O)CCCCCCCCCCCCCCCCC(=O)O)C(=O)O)C(=O)N1CCC[C@H]1C(=O)N[C@@H](CCC(=O)O)C(=O)N[C@@H](CCC(=O)O)C(=O)N[C@@H](CC(=O)O)C(=O)N[C@@H](C)C(=O)N[C@H](C(=O)N1CCC[C@H]1C(=O)N[C@@H](CCC(=O)O)C(=O)N[C@@H](CCC(=O)O)C(=O)N[C@@H](CC(C)C)C(=O)N[C@@H](CCC(N)=O)C(=O)N[C@@H](C)C(=O)N[C@@H](Cc1ccc(O)cc1)C(=O)N[C@@H](Cc1ccc(O)cc1)C(=O)N[C@H](C(=O)N[C@@H](CO)C(=O)N[C@@H](CC(C)C)C(=O)N[C@@H](CCCNC(=N)N)C(=O)N[C@@H](Cc1c[nH]cn1)C(=O)N[C@@H](Cc1ccc(O)cc1)C(=O)N[C@@H](Cc1ccc(O)cc1)C(=O)N[C@@H](CC(N)=O)C(=O)N[C@@H](Cc1c[nH]c2ccccc12)C(=O)N[C@@H](CC(C)C)C(=O)N[C@H](C(=O)N[C@@H](CCCNC(=N)N)C(=O)N[C@@H](CCC(N)=O)C(=O)N[C@@H](CCCNC(=N)N)C(=O)N[C@@H](Cc1ccc(O)cc1)C(N)=O)[C@@H](C)O)C(C)C)[C@@H](C)O) [Compound 95],2.92

# Other lines, results leading:
row,Ki [nM],Binder
1,3.06,Isovaleryl-APEK([Ahx-γGlu-C18 diacid])PEESATPEELQRYYVSLRHYYNWLTRQRY-NH2 (SMILES CC(C)CC(=O)N[C@@H](C)C(=O)N1CCC[C@H]1C(=O)N[C@@H](CCC(=O)O)C(=O)N[C@@H](CCCCNC(=O)CCCCCNC(=O)CC[C@H](NC(=O)CCCCCCCCCCCCCCCCC(=O)O)C(=O)O)C(=O)N1CCC[C@H]1C(=O)N[C@@H](CCC(=O)O)C(=O)N[C@@H](CCC(=O)O)C(=O)N[C@@H](CO)C(=O)N[C@@H](C)C(=O)N[C@H](C(=O)N1CCC[C@H]1C(=O)N[C@@H](CCC(=O)O)C(=O)N[C@@H](CCC(=O)O)C(=O)N[C@@H](CC(C)C)C(=O)N[C@@H](CCC(N)=O)C(=O)N[C@@H](CCCNC(=N)N)C(=O)N[C@@H](Cc1ccc(O)cc1)C(=O)N[C@@H](Cc1ccc(O)cc1)C(=O)N[C@H](C(=O)N[C@@H](CO)C(=O)N[C@@H](CC(C)C)C(=O)N[C@@H](CCCNC(=N)N)C(=O)N[C@@H](Cc1c[nH]cn1)C(=O)N[C@@H](Cc1ccc(O)cc1)C(=O)N[C@@H](Cc1ccc(O)cc1)C(=O)N[C@@H](CC(N)=O)C(=O)N[C@@H](Cc1c[nH]c2ccccc12)C(=O)N[C@@H](CC(C)C)C(=O)N[C@H](C(=O)N[C@@H](CCCNC(=N)N)C(=O)N[C@@H](CCC(N)=O)C(=O)N[C@@H](CCCNC(=N)N)C(=O)N[C@@H](Cc1ccc(O)cc1)C(N)=O)[C@@H](C)O)C(C)C)[C@@H](C)O) [Compound 96]
2,4.23,Isovaleryl-APEK([Ahx-γGlu-C18 diacid])PEEDATPEEIQRYYLSLRHYYNWLTRQRY-NH2 (SMILES CC[C@H](C)[C@H](NC(=O)[C@H](CCC(=O)O)NC(=O)[C@H](CCC(=O)O)NC(=O)[C@@H]1CCCN1C(=O)[C@@H](NC(=O)[C@H](C)NC(=O)[C@H](CC(=O)O)NC(=O)[C@H](CCC(=O)O)NC(=O)[C@H](CCC(=O)O)NC(=O)[C@@H]1CCCN1C(=O)[C@H](CCCCNC(=O)CCCCCNC(=O)CC[C@H](NC(=O)CCCCCCCCCCCCCCCCC(=O)O)C(=O)O)NC(=O)[C@H](CCC(=O)O)NC(=O)[C@@H]1CCCN1C(=O)[C@H](C)NC(=O)CC(C)C)[C@@H](C)O)C(=O)N[C@@H](CCC(N)=O)C(=O)N[C@@H](CCCNC(=N)N)C(=O)N[C@@H](Cc1ccc(O)cc1)C(=O)N[C@@H](Cc1ccc(O)cc1)C(=O)N[C@@H](CC(C)C)C(=O)N[C@@H](CO)C(=O)N[C@@H](CC(C)C)C(=O)N[C@@H](CCCNC(=N)N)C(=O)N[C@@H](Cc1c[nH]cn1)C(=O)N[C@@H](Cc1ccc(O)cc1)C(=O)N[C@@H](Cc1ccc(O)cc1)C(=O)N[C@@H](CC(N)=O)C(=O)N[C@@H](Cc1c[nH]c2ccccc12)C(=O)N[C@@H](CC(C)C)C(=O)N[C@H](C(=O)N[C@@H](CCCNC(=N)N)C(=O)N[C@@H](CCC(N)=O)C(=O)N[C@@H](CCCNC(=N)N)C(=O)N[C@@H](Cc1ccc(O)cc1)C(N)=O)[C@@H](C)O) [Compound 97]
3,1.01,Isovaleryl-APEK([Ahx-γGlu-C18 diacid])PEADATPEELQRYYIALRHYYNWLTRQRY-NH2 (SMILES CC[C@H](C)[C@H](NC(=O)[C@H](Cc1ccc(O)cc1)NC(=O)[C@H](Cc1ccc(O)cc1)NC(=O)[C@H](CCCNC(=N)N)NC(=O)[C@H](CCC(N)=O)NC(=O)[C@H](CC(C)C)NC(=O)[C@H](CCC(=O)O)NC(=O)[C@H](CCC(=O)O)NC(=O)[C@@H]1CCCN1C(=O)[C@@H](NC(=O)[C@H](C)NC(=O)[C@H](CC(=O)O)NC(=O)[C@H](C)NC(=O)[C@H](CCC(=O)O)NC(=O)[C@@H]1CCCN1C(=O)[C@H](CCCCNC(=O)CCCCCNC(=O)CC[C@H](NC(=O)CCCCCCCCCCCCCCCCC(=O)O)C(=O)O)NC(=O)[C@H](CCC(=O)O)NC(=O)[C@@H]1CCCN1C(=O)[C@H](C)NC(=O)CC(C)C)[C@@H](C)O)C(=O)N[C@@H](C)C(=O)N[C@@H](CC(C)C)C(=O)N[C@@H](CCCNC(=N)N)C(=O)N[C@@H](Cc1c[nH]cn1)C(=O)N[C@@H](Cc1ccc(O)cc1)C(=O)N[C@@H](Cc1ccc(O)cc1)C(=O)N[C@@H](CC(N)=O)C(=O)N[C@@H](Cc1c[nH]c2ccccc12)C(=O)N[C@@H](CC(C)C)C(=O)N[C@H](C(=O)N[C@@H](CCCNC(=N)N)C(=O)N[C@@H](CCC(N)=O)C(=O)N[C@@H](CCCNC(=N)N)C(=O)N[C@@H](Cc1ccc(O)cc1)C(N)=O)[C@@H](C)O) [Compound 100]
